Laboratory results published in patent US10941182 (Amgen, dated 2021).
Starred links: 1 amine or outer side, 2 acyl side, 3 side chain; linkers in the order of their positions; H or OH if unused. Non-standard residues stand in square brackets, D forms with d. *: point of attachment. Bh4ClF = β-4-chloro-L-homophenylalanine, O=C(C[C@H](Cc1ccc(Cl)cc1)N[*:1])[*:2]; AC4Abu = α-carboxy-4-aminobutyric acid, O=C(C(CCN[*:1])C(=O)[*:3])[*:2]; Oic = O=C(O)[C@@H]1C[C@@H]2CCCC[C@@H]2N1; Phe(4-Cl) = N[C@@H](Cc1ccc(Cl)cc1)C(=O)O; dPhe(4-I) = N[C@H](Cc1ccc(I)cc1)C(=O)O; γGlu = O=C(O)[C@H](CCC(=O)[*:2])N[*:1]; 1Nal = N[C@@H](Cc1cccc2ccccc12)C(=O)O; 2Nal = N[C@@H](Cc1ccc2ccccc2c1)C(=O)O; d2Nal = N[C@H](Cc1ccc2ccccc2c1)C(=O)O; dIgl = N[C@@H](C(=O)O)C1Cc2ccccc2C1; B4ClF = β-4-chloro-L-phenylalanine; Gly(cPent) = N[C@H](C(=O)O)C1CCCC1; Tridecanoyl = CCCCCCCCCCCCC(=O)*; hArg = N=C(N)NCCCC[C@H](N)C(=O)O; Cha = N[C@@H](CC1CCCCC1)C(=O)O; Aic = NC1(C(=O)O)Cc2ccccc2C1; Tle = CC(C)(C)[C@H](N)C(=O)O; Nle = CCCC[C@H](N)C(=O)O; AEEA = NCCOCCOCC(=O)O

T1: rat APJ receptor (rat, UniProt Q9JHG3 1-377)
T1 sequence (looked up): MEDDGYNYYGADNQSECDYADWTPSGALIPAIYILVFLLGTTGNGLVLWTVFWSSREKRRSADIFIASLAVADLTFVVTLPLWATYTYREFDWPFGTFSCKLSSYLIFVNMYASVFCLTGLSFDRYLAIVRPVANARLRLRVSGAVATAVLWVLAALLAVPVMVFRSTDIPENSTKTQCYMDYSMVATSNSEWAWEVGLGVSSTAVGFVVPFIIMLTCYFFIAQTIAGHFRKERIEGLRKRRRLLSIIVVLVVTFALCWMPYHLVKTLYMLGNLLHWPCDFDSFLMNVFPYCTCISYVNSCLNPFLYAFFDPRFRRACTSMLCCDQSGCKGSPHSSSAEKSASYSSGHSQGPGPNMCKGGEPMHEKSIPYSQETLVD

T2: human APJ receptor (human, UniProt P35414 1-380)
T2 sequence (looked up): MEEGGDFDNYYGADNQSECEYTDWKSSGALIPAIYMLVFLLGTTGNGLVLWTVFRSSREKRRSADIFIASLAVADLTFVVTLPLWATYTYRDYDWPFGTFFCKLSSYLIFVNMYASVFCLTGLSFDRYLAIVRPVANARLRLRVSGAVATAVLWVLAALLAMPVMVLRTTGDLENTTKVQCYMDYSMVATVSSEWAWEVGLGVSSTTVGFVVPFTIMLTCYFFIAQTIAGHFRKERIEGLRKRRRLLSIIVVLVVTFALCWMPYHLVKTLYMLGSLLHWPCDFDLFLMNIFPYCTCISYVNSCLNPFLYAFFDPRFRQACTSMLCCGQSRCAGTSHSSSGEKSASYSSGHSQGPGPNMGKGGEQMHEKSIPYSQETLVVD


Tests used:
rat APJ receptor = biological target: T1, rat APJ receptor; assay: cell-based or functional assay
human APJ receptor = biological target: T2, human APJ receptor; assay: cell-based or functional assay

| EC50 Rat APJ Receptor (GTPγS assay) (rat APJ receptor) [nM] | EC50 Human APJ Receptor (GTPγS assay) (human APJ receptor) [nM] | Binder |
| --- | --- | --- |
| 67.5 | 26.3 | Tridecanoyl-[γGlu][AEEA][AEEA][dQ][hArg]P[dR][Cha]SHKG[Oic][Nle]P[1Nal]-OH [Apelin polypeptide SEQ ID NO: 367] |
| 31.4 | 32.3 | Tridecanoyl-[γGlu][AEEA][AEEA][dQ][hArg]P[dR][Cha]SHKG[Oic][Nle]P[2Nal]-OH [Apelin polypeptide SEQ ID NO: 368] |
| 23.6 | 17.1 | Tridecanoyl-[γGlu][AEEA][AEEA][dQ][hArg]P[dR][Cha]SHKG[Oic][Nle]P[Aic]-OH [Apelin polypeptide SEQ ID NO: 366] |
| 3.96 | 3.27 | Tridecanoyl-[γGlu][AEEA][AEEA][dQ][hArg]P[dR][Cha]SHKG[Oic][Nle]P[Phe(4-Cl)]-OH [Apelin polypeptide SEQ ID NO: 363] |
| 216 | 124 | Tridecanoyl-[AC4Abu][AEEA][AEEA][dQ][hArg]P[dR][Cha]SHKG[Oic][Nle]P[d2Nal]-OH (SMILES CCCCCCCCCCCCC(=O)NCCC(C(=O)O)C(=O)NCCOCCOCC(=O)NCCOCCOCC(=O)N[C@H](CCC(N)=O)C(=O)N[C@@H](CCCCNC(=N)N)C(=O)N1CCC[C@H]1C(=O)N[C@H](CCCNC(=N)N)C(=O)N[C@@H](CC1CCCCC1)C(=O)N[C@@H](CO)C(=O)N[C@@H](Cc1c[nH]cn1)C(=O)N[C@@H](CCCCN)C(=O)NCC(=O)N1[C@H](C(=O)N[C@@H](CCCC)C(=O)N2CCC[C@H]2C(=O)N[C@H](Cc2ccc3ccccc3c2)C(=O)O)C[C@@H]2CCCC[C@@H]21) [Apelin polypeptide SEQ ID NO: 407] |
| 42 | 25.9 | Tridecanoyl-[γGlu][AEEA][AEEA][dQ][hArg]P[dR][Cha]SHKG[Oic][Nle]P[D‑4IF]-OH [Apelin polypeptide SEQ ID NO: 369] |

The remaining lines, values behind:

| Binder | EC50 Rat APJ Receptor (GTPγS assay) (rat APJ receptor) [nM] | EC50 Human APJ Receptor (GTPγS assay) (human APJ receptor) [nM] |
| --- | --- | --- |
| Tridecanoyl-[γGlu][AEEA][AEEA][dQ][hArg]P[dR][Cha]SHKG[Oic][Nle]P[B4ClF]-OH [Apelin polypeptide SEQ ID NO: 432] | 16.2 | 11.1 |
| Tridecanoyl-[γGlu][AEEA][AEEA][dQ][hArg]P[dR][Cha]SAKG[Oic][Nle]P[Phe(4-Cl)]-OH (SMILES CCCCCCCCCCCCC(=O)N[C@@H](CCC(=O)NCCOCCOCC(=O)NCCOCCOCC(=O)N[C@H](CCC(N)=O)C(=O)N[C@@H](CCCCNC(=N)N)C(=O)N1CCC[C@H]1C(=O)N[C@H](CCCNC(=N)N)C(=O)N[C@@H](CC1CCCCC1)C(=O)N[C@@H](CO)C(=O)N[C@@H](C)C(=O)N[C@@H](CCCCN)C(=O)NCC(=O)N1[C@H](C(=O)N[C@@H](CCCC)C(=O)N2CCC[C@H]2C(=O)N[C@@H](Cc2ccc(Cl)cc2)C(=O)O)C[C@@H]2CCCC[C@@H]21)C(=O)O) [Apelin polypeptide SEQ ID NO: 372] | 1.5 | 2.84 |
| Tridecanoyl-[γGlu][AEEA][AEEA][dQ][hArg]P[dR][Cha]SHKG[Oic][Nle]P[dIgl]-OH (SMILES CCCCCCCCCCCCC(=O)N[C@@H](CCC(=O)NCCOCCOCC(=O)NCCOCCOCC(=O)N[C@H](CCC(N)=O)C(=O)N[C@@H](CCCCNC(=N)N)C(=O)N1CCC[C@H]1C(=O)N[C@H](CCCNC(=N)N)C(=O)N[C@@H](CC1CCCCC1)C(=O)N[C@@H](CO)C(=O)N[C@@H](Cc1c[nH]cn1)C(=O)N[C@@H](CCCCN)C(=O)NCC(=O)N1[C@H](C(=O)N[C@@H](CCCC)C(=O)N2CCC[C@H]2C(=O)N[C@@H](C(=O)O)C2Cc3ccccc3C2)C[C@@H]2CCCC[C@@H]21)C(=O)O) [Apelin polypeptide SEQ ID NO: 431] | 25 | 31.2 |
| Tridecanoyl-[γGlu][AEEA][AEEA][dQ][hArg]P[dR][Cha]SHKG[Oic][Nle]P[Bh4ClF]-OH [Apelin polypeptide SEQ ID NO: 370] | 23.7 | 12.9 |
| Tridecanoyl-[γGlu][AEEA][AEEA][dQ][hArg]P[dR][Cha]SHKG[Oic][Nle]P[Oic]-OH [Apelin polypeptide SEQ ID NO: 365] | 20.7 | 23 |
| Tridecanoyl-[γGlu][AEEA][AEEA][dQ][hArg]P[dR][Cha]SHK[Tle][Oic][Nle]P[Phe(4-Cl)]-OH [Apelin polypeptide SEQ ID NO: 371] | 4.67 | 6.92 |
| Tridecanoyl-[γGlu][AEEA][AEEA]Q[hArg]P[dR][Cha]SHKG[Oic][Nle]P[D‑4ClF]-OH [Apelin polypeptide SEQ ID NO: 364] | 20.4 | 6 |
| Tridecanoyl-[AC4Abu][AEEA][AEEA][dQ][hArg]P[dR][Cha]SHKG[Oic][Nle]P[Gly(cPent)]-OH (SMILES CCCCCCCCCCCCC(=O)NCCC(C(=O)O)C(=O)NCCOCCOCC(=O)NCCOCCOCC(=O)N[C@H](CCC(N)=O)C(=O)N[C@@H](CCCCNC(=N)N)C(=O)N1CCC[C@H]1C(=O)N[C@H](CCCNC(=N)N)C(=O)N[C@@H](CC1CCCCC1)C(=O)N[C@@H](CO)C(=O)N[C@@H](Cc1c[nH]cn1)C(=O)N[C@@H](CCCCN)C(=O)NCC(=O)N1[C@H](C(=O)N[C@@H](CCCC)C(=O)N2CCC[C@H]2C(=O)N[C@H](C(=O)O)C2CCCC2)C[C@@H]2CCCC[C@@H]21) [Apelin polypeptide SEQ ID NO: 406] | 73 | 33.6 |
| Tridecanoyl-[AC4Abu][AEEA][AEEA][dQ][hArg]P[dR][Cha]SHKG[Oic][Nle][dPhe(4-I)]-OH (SMILES CCCCCCCCCCCCC(=O)NCCC(C(=O)O)C(=O)NCCOCCOCC(=O)NCCOCCOCC(=O)N[C@H](CCC(N)=O)C(=O)N[C@@H](CCCCNC(=N)N)C(=O)N1CCC[C@H]1C(=O)N[C@H](CCCNC(=N)N)C(=O)N[C@@H](CC1CCCCC1)C(=O)N[C@@H](CO)C(=O)N[C@@H](Cc1c[nH]cn1)C(=O)N[C@@H](CCCCN)C(=O)NCC(=O)N1[C@H](C(=O)N[C@@H](CCCC)C(=O)N[C@H](Cc2ccc(I)cc2)C(=O)O)C[C@@H]2CCCC[C@@H]21) [Apelin polypeptide SEQ ID NO: 453] | 20.8 | 19 |
| Tridecanoyl-[γGlu][AEEA][AEEA][dQ][hArg]P[dR][Cha]S[Tle]KG[Oic][Nle]P[Phe(4-Cl)]-OH (SMILES CCCCCCCCCCCCC(=O)N[C@@H](CCC(=O)NCCOCCOCC(=O)NCCOCCOCC(=O)N[C@H](CCC(N)=O)C(=O)N[C@@H](CCCCNC(=N)N)C(=O)N1CCC[C@H]1C(=O)N[C@H](CCCNC(=N)N)C(=O)N[C@@H](CC1CCCCC1)C(=O)N[C@@H](CO)C(=O)N[C@H](C(=O)N[C@@H](CCCCN)C(=O)NCC(=O)N1[C@H](C(=O)N[C@@H](CCCC)C(=O)N2CCC[C@H]2C(=O)N[C@@H](Cc2ccc(Cl)cc2)C(=O)O)C[C@@H]2CCCC[C@@H]21)C(C)(C)C)C(=O)O) [Apelin polypeptide SEQ ID NO: 452] | 25 | 10.4 |
| Tridecanoyl-[γGlu][AEEA][AEEA][dQ][hArg]P[dR][Cha]SHKG[Oic][Nle][Aic]-OH (SMILES CCCCCCCCCCCCC(=O)N[C@@H](CCC(=O)NCCOCCOCC(=O)NCCOCCOCC(=O)N[C@H](CCC(N)=O)C(=O)N[C@@H](CCCCNC(=N)N)C(=O)N1CCC[C@H]1C(=O)N[C@H](CCCNC(=N)N)C(=O)N[C@@H](CC1CCCCC1)C(=O)N[C@@H](CO)C(=O)N[C@@H](Cc1c[nH]cn1)C(=O)N[C@@H](CCCCN)C(=O)NCC(=O)N1[C@H](C(=O)N[C@@H](CCCC)C(=O)NC2(C(=O)O)Cc3ccccc3C2)C[C@@H]2CCCC[C@@H]21)C(=O)O) [Apelin polypeptide SEQ ID NO: 595] | 54.8 | 50 |
